By koff is commonly meant a measure of how fast the partners let go of each other. What is called IC50 is the midpoint of a concentration-inhibition curve. Usually Kd stands for the concentration at which binding is half-saturated. Low values mean a tighter complex, high ones a looser complex. As usually defined, the kon is a measure of how fast the partners come together.

Assay [1] deals with T1, recombinant human LAG-3-his protein (Novoprotein) (human, UniProt P18627 23-450).
T1 construct: Bought; also called huLAG-3; not shown: His tag
T1 sequence (looked up): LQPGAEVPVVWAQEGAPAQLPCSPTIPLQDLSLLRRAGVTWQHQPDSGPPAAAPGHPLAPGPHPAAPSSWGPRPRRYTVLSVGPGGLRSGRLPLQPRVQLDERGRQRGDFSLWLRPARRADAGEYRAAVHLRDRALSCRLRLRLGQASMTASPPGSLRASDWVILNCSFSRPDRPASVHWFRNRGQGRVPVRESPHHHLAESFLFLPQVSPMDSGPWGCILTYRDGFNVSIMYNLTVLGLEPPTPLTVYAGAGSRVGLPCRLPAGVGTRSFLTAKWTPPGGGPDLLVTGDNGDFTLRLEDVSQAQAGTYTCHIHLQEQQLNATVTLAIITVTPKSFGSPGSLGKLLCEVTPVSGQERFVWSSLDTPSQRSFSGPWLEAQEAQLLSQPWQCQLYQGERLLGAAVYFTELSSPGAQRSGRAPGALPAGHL
In words: BLI Octet, Ab on AHC sensor, huLAG-3-his; test group 3. As for the experimental part:
(§1) All 9 humanized antibodies (Table 25) and a chimeric antibody having the parental murine VH and VL domains (mAb747c) were ranked by dissociation rate constant (koff). Briefly, antibodies were characterized for affinities and binding kinetics by Octet RED96 biolayer interferometry (Pall FortéBio LLC). Antibodies were captured by Anti-HIgG Fc Capture (AHC) Biosensors (Pall) at a concentration of 100 nM for 30 seconds. Sensors were then dipped into running buffer (1× pH7.2 PBS, 0.05% Tween 20, 0.1% BSA) for 60 seconds to check baseline. Binding was measured by dipping sensors into a single concentration of recombinant human LAG-3-his protein (Novoprotein). Dissociation was followed by dipping sensors into running buffer for 1200 seconds. The association and dissociation curves were fitted to a 1:1 Langmuir binding model using FortéBio Data Analysis software (Pall).
(§2) All 13 humanized antibodies (Table 39) and chimeric anti-LAG-3 antibody mAb747c having the parental murine VH and VL domains were ranked by dissociation rate constant (koff) in the same manner described in Example 9.1 supra. In each test group, the off-rates of antibodies were able to be compared with that of mAb747c. The off-rate ratios were calculated by the off-rate of antibody to that of mAb747c of its group and were compared all together. The lower the ratio was, the higher was the affinity of the antibody.
Background: BLI is a label-free optical method that tracks binding on a fibre tip over time.

The target of assay [2] is T1, recombinant human LAG-3-his protein …. Description: BLI Octet, Ab on AHC sensor, huLAG-3-his analyte. How it is done:
as §1

For assay [3] the target is unchanged. In words: BLI Octet, Ab on AHC sensor, huLAG-3-his; test group 2. How it is done:
as §1
(§3) The seven Fab clones were converted to full IgG proteins. Briefly, the VH and VL genes were produced synthetically and then cloned into vectors containing coding sequences for the human IgG1 and human kappa constant domains, respectively. The heavy chain and cognate light chain plasmids were co-transfected into HEK 293E cells, individually. After approximately six days of post-transfection cell culture, the supernatants were harvested and subjected to Protein A affinity chromatography. The affinity of purified antibodies was ranked by Octet® RED96 biolayer interferometry (see, Example 9.1, supra).

Assay [4] deals with T2, human PD-1 expressed on cells (human, UniProt Q15116 25-288).
T2 construct: whole, on cells; also called CHO-K1/huPD-1; CHO-K1-hPD-1 cells
Description: cell RBA FACS, CHO-K1-huPD1; competitor biotin-PD-L1/Fc. As for the experimental part:
(§4) All 15 humanized antibodies and the chimeric antibody (mAb709c) were characterized by binding ELISA and cell-based RBA. For cell-based RBA, 2×10⁵ cells/well of CHO-K1-huPD1 cells were added to a pre-blocked 96-well round-bottomed plate and after washing, 50 μl antibodies with diluted concentration ranging from 0.064 nM to 200 nM were added to each well. Next, 50 μl of 60 μg/ml biotinylated PD-L1/Fc or biotinylated PD-L2/Fc protein were added. After gentle mixing and incubation at 4° C., the cells were washed and stained by Alexa Fluor™ 488 streptavidin solution (1:1000, ThermoFisher Scientific; Cat. No. S32354). Signals were readout by FACS and curves were fitted by GraphPad software. […] The association and dissociation rate constants, k (M⁻¹ s⁻¹) and koff(s⁻¹), respectively, were determined by making kinetic binding measurements at five different concentrations of human PD-1-His protein at a continuous flow rate of 30 μl/min. The equilibrium dissociation constant KD (M) of the reaction between antibodies and related target proteins was calculated from the kinetic rate constants using the formula KD=koff/kₒₙ. HumAb709-8 had minimal back-mutation(s) while maintaining to the greatest extent the affinity of the parental variable domains on chimeric mAb709c.

In assay [5] the target is T3, human PD-1-His protein (human, UniProt Q15116 25-167, limits assumed).
T3 construct: also called huPD-1; not shown: His tag
In words: SPR Biacore, Ab captured, huPD-1-His analyte. As for the experimental part: as §4

Assay [6] addresses T4, human PD-1 ECD/Fc fusion protein (human).
T4 construct: also called huPD-1/Fc; HuPD-1 ECD/Fc
Description: SPR Biacore, HuPD-1 ECD/Fc and HuLAG-3 ECD/Fc both on chip, Ab analyte. (Surface plasmon resonance follows binding to a sensor surface in real time, without labels.)

The target in assay [7] is T4, human PD-1 ECD/Fc fusion protein. Description: SPR Biacore, HuPD-1 ECD/Fc on chip, Ab analyte.
Assay [8] addresses T2, human PD-1 expressed on cells. In words: cell RBA FACS, CHO-K1-huPD1; competitor biotin-PD-L2/Fc. How it is done:
as §4

Assay [9] deals with T1, recombinant human LAG-3-his protein …. In words: BLI Octet, Ab on AHC sensor, huLAG-3-his; test group 4. How it is done: as §1, with “All 18” for “All 9”, “(Table 34)” for “(Table 25)”, “by Octet®RED96” for “by Octet RED96”, “(Pall ForteBio” for “(Pall FortéBio”, “by Anti-hIgG” for “by Anti-HIgG”, “(Pall). In each test group, the off-rates of antibodies were able to be compared with that of mAb747c. The off-rate ratios were calculated by the off-rate of antibody to that of mAb747c of its group and were compared all together. The lower the ratio was, the higher was the affinity of the antibody.” for “(Pall).”

For assay [10] the target is unchanged. Description: BLI Octet, Ab on AHC sensor, huLAG-3-his; test group 1. How it is done: as §1, with “All 18” for “All 9”, “(Table 34)” for “(Table 25)”, “by Octet®RED96” for “by Octet RED96”, “(Pall ForteBio” for “(Pall FortéBio”, “by Anti-hIgG” for “by Anti-HIgG”, “(Pall). In each test group, the off-rates of antibodies were able to be compared with that of mAb747c. The off-rate ratios were calculated by the off-rate of antibody to that of mAb747c of its group and were compared all together. The lower the ratio was, the higher was the affinity of the antibody.” for “(Pall).”

Assay [11] shares this target. In words: BLI Octet, Ab on AHC sensor, huLAG-3-his; test group 3. How it is done: as §1, with “All 18” for “All 9”, “(Table 34)” for “(Table 25)”, “by Octet®RED96” for “by Octet RED96”, “(Pall ForteBio” for “(Pall FortéBio”, “by Anti-hIgG” for “by Anti-HIgG”, “(Pall). In each test group, the off-rates of antibodies were able to be compared with that of mAb747c. The off-rate ratios were calculated by the off-rate of antibody to that of mAb747c of its group and were compared all together. The lower the ratio was, the higher was the affinity of the antibody.” for “(Pall).”
The source holds these as a separate data set.

The target is the same in assay [12]. Description: BLI Octet, Ab on AHC sensor, huLAG-3-his; test group 2. How it is done: as §1, with “All 18” for “All 9”, “(Table 34)” for “(Table 25)”, “by Octet®RED96” for “by Octet RED96”, “(Pall ForteBio” for “(Pall FortéBio”, “by Anti-hIgG” for “by Anti-HIgG”, “(Pall). In each test group, the off-rates of antibodies were able to be compared with that of mAb747c. The off-rate ratios were calculated by the off-rate of antibody to that of mAb747c of its group and were compared all together. The lower the ratio was, the higher was the affinity of the antibody.” for “(Pall).”
This is another data set of the same source.

For assay [13] the target is unchanged. In words: BLI Octet, Ab on AHC sensor, huLAG-3-his; test group 1. How it is done:
as §1, §2
This is another data set of the same source.

The target is the same in assay [14]. The assay is described as above. As for the experimental part: as §1, §3
The source holds these as a separate data set.

For assay [15] the target is unchanged. Description: BLI Octet, Ab on AHC sensor, huLAG-3-his; test group 2. How it is done:
as §1, §2
This is another data set of the same source.

T3 sequence (Q15116 25-167 limits assumed): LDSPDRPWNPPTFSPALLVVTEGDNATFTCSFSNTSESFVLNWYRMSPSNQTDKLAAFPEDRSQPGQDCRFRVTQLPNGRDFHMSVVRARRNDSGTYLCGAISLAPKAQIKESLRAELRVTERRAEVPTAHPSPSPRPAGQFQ
T4 sequence (chain, as listed by the source limits assumed): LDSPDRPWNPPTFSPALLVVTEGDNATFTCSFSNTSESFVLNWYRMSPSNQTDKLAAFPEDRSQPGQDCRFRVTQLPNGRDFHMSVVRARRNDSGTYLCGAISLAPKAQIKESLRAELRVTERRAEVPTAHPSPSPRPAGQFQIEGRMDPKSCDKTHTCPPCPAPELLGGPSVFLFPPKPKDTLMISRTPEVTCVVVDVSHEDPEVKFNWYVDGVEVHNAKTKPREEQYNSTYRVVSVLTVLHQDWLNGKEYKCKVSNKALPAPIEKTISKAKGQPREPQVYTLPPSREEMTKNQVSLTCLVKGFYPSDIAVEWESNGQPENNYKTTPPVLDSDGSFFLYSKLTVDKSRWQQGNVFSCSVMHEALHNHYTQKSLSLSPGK
T2 sequence (Q15116 25-288): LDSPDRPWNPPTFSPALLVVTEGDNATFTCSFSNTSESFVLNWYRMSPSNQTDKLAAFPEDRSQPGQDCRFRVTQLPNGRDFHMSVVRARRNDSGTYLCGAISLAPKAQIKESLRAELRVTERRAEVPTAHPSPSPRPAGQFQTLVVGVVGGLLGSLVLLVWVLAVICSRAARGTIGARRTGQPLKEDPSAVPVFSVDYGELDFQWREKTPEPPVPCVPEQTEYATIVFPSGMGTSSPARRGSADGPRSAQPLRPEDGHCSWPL

B1: HumAb747V-73 (antibody, human IgG1, V domains shown)
VH: EVQLVQSGAEVKKPGATVKLSCTASGFNIKDDYMHWVKQRPEQGLDWIGWIVPRNGNTVYASKFQGKATITADTSTNTAYLELSSLRSEDTAVYYCTVYGDYWGQGTTVTVSS
VL: DIQMTQSPSSLSASVGDRVTITCRASQEISGYLSWLQQKPGGAIKRLIYAASTLDSGVPSRFSGSRSGSDYTLTISSLQPEDFADYYCLQYASYPLTFGQGTKLELK
notes: engineered HumAb747-60 variant; human IgG1/kappa constant domains
With B1, in [1], the koff was determined as 0.000321 s⁻¹ and the “off-rate ratio to that of mAb747c” value was found to be 51%.

B2: HumAb747-39 (antibody, human IgG1, V domains shown)
VH: EVQLVQSGAEVKKPGASVKVSCKASDFNIKDDYMHWVRQAPGQGLEWIGWIVPENGNTEYASKFQGRVTITADTSINTAYMELSRLRSDDTAVYYCTVYGDYWGQGTTVTVSS
VL: DIQMTQSPSSLSASVGDRVTINCRASQEISGYLSWLQQKPEGTIKRLIYAASTLDSGVPSRFSGSRSGSDYTLTISSLQPEDFATYYCLQYASYPLTFGGGTKVEIK
notes: humanized mAb747; human IgG1 and human kappa constant domains
With B2, the koff in [2] stood at 0.00114 s⁻¹. In [3], the koff turned out to be 0.00391 s⁻¹ and the “off-rate ratio to that of mAb747c” value is 240%.

B3: HumAb747-42 (antibody, human IgG1, V domains shown)
VH: EVQLVQSGAEVKKPGASVKVSCKASDFNIKDDYMHWVRQAPGQGLEWIGWIVPENGNTEYASKFQGKATITADTSINTAYMELSRLRSDDTAVYYCTVYGDYWGQGTTVTVSS
VL: DIQMTQSPSSLSASVGDRVTINCRASQEISGYLSWLQQKPEGTIKRLIYAASTLDSGVPSRFSGSRSGSDYTLTISSLQPEDFATYYCLQYASYPLTFGGGTKVEIK
notes: as for B2
Consider B3, for which, in [2], the koff stood at 0.00083 s⁻¹ and the “off-rate constant, fold of the chimeric control mAb747c” value was found to be 2.2 fold. In [3], the koff worked out at 0.00428 s⁻¹ and the “off-rate ratio to that of mAb747c” value was determined as 263%.

B4: mAb709c (antibody, V domains shown)
VH: EVKLVESGGGLVKPGGSLKLSCAASGFTFSFYTMSWVRQTPEKRLEWVATISGGGRDTYYPDSVKGRFTISRDNAKNTLYLHMSSLRSEDTALYYCAGQGGNYLFAYWGQGTLVTVSA
VL: DIVMTQSHKFMSTSVGDSVTITCKASQDVNTVVAWYQQKPGQSLKVLISWASTRHTGVPARFTGSGSGTDYTLTISSVQAEDLALYYCQQHYTTPYTFGGGTQLEIK
notes: also called HumAb709c
For B4, the results for the IC50 in assay [4] and in assay [8] were 620 pM and 560 pM, respectively. The Kd in [5] was found to be 567 pM; in assay [6], 33.7 pM; in assay [7], 35 pM. For the same molecule, the koff was 6.88e-05 s⁻¹ in assay [5], 9.72e-06 s⁻¹ in assay [6] and 8.82e-06 s⁻¹ in [7]. Further, the kon was 121000 M⁻¹ s⁻¹ in [5], 288000 M⁻¹ s⁻¹ in assay [6] and 252000 M⁻¹ s⁻¹ in assay [7].

B5: mAb747c (antibody, V domains shown)
VH: EVQLQQSGAELVRPGASVKLSCTASDFNIKDDYMHWVKQRPEQGLDWIGWIVPENGNTEYASKFQGKATITADTSSNTAYLQLSSLTSEDTAVYYCTVYGDYWGQGTTLTVSS
VL: DIQMTQSPSSLSASLGERVSLNCRASQEISGYLSWLQQKPDGTIKRLIYAASTLDSGVPKRFSGSRSGSDYSLTISSLESEDFAAYYCLQYASYPLTFGAGTKLELK
notes: also called mAb717c
In the case of B5, the koff was 0.000631 s⁻¹ in assay [1]; 0.000377 s⁻¹ in [2]; 0.00053 s⁻¹ in assay [9]; 0.00136 s⁻¹ in [10]; 0.00123 s⁻¹ in assay [11]; 0.00163 s⁻¹ in assay [3]. In addition, the off-rate constant (koff) amounted to 0.00135 s⁻¹ in assay [12], 0.000615 s⁻¹ in assay [13], 0.0015 s⁻¹ in assay [14] and 0.000676 s⁻¹ in assay [15]. For the same molecule, the “off-rate ratio to that of mAb747c” value in assay [1], in assay [9], in assay [10], in [11], in [3] and in assay [12] was 100% throughout. Besides, the “off-rate ratio to that of mAb747c” value in assay [13], in assay [14] and in assay [15] was 100% throughout.
